# Key:
# [1] = biological target: nisch_human NISCH (UniProt Q9Y2I1)
# [2] = biological target: nisch_human NISCH (UniProt Q9Y2I1); remark: listed apart in the source
# [3] = biological target: nisch_human NISCH (UniProt Q9Y2I1); remark: listed apart in the source
# [4] = biological target: nisch_human NISCH (UniProt Q9Y2I1); remark: listed apart in the source
# Chain of UniProt Q9Y2I1 (Q9Y2I1 whole entry): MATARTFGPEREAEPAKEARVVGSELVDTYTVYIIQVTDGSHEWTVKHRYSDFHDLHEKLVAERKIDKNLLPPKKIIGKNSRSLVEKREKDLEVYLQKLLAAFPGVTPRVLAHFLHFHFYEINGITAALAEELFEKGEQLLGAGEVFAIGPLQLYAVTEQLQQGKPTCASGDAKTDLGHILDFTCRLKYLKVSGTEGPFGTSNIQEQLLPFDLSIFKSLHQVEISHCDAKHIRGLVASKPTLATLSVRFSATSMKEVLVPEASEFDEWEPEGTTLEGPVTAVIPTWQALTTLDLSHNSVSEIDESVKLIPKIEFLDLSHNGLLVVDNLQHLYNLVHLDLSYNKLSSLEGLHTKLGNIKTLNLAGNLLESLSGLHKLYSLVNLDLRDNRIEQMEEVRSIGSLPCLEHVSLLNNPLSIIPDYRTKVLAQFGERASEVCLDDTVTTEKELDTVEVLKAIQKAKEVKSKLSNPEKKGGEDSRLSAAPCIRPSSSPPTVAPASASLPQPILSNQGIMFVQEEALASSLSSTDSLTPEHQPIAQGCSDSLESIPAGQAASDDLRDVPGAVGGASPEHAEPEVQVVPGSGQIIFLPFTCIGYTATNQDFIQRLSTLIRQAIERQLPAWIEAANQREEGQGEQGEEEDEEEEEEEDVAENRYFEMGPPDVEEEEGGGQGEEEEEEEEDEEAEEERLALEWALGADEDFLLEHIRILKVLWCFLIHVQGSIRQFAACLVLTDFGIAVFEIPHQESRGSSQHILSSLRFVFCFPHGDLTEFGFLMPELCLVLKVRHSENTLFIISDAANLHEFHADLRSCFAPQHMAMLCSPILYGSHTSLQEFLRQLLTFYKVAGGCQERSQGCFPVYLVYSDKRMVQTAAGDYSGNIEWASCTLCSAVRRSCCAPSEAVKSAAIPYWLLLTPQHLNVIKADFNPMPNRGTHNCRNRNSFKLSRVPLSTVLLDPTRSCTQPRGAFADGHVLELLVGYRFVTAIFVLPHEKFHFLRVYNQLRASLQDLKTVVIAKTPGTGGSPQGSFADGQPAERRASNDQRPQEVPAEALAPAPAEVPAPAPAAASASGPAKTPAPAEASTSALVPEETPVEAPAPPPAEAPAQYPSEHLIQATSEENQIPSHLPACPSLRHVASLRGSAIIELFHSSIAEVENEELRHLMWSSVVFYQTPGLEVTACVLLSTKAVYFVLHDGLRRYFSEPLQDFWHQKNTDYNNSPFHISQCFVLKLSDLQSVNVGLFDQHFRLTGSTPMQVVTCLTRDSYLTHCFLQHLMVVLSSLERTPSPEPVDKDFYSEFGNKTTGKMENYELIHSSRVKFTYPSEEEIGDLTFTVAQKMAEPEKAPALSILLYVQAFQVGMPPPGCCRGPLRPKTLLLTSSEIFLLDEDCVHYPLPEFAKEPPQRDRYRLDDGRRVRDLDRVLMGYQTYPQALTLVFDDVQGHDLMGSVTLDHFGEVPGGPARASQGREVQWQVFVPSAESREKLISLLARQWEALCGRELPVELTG
substance,measurement,setting,value
Ras-related protein Rab-14 (Rattus norvegicus (Rat)) (from UniProt P61107) Q70L,effect of a mutation on the interaction,[1],increasing interaction
Ras-related protein Rab-14 (Rattus norvegicus (Rat)) (from UniProt P61107) N124I,effect of a mutation on the interaction,[2],decreasing interaction
Ras-related protein Rab-14 (Rattus norvegicus (Rat)) (from UniProt P61107) S25N,effect of a mutation on the interaction,[3],decreasing interaction
same,effect of a mutation on the interaction,[4],disrupting interaction
